Source: article doi:10.1101/2021.01.04.424714 (bioRxiv, 2021)

B1: bacteriophage T7 gp16 core protein (natural protein, UniProt P03726 1-1318, looked up)
chain: MDKYDKNVPSDYDGLFQKAADANGVSYDLLRKVAWTESRFVPTAKSKTGPLGMMQFTKATAKALGLRVTDGPDDDRLNPELAINAAAKQLAGLVGKFDGDELKAALAYNQGEGRLGNPQLEAYSKGDFASISEEGRNYMRNLLDVAKSPMAGQLETFGGITPKGKGIPAEVGLAGIGHKQKVTQELPESTSFDVKGIEQEATAKPFAKDFWETHGETLDEYNSRSTFFGFKNAAEAELSNSVAGMAFRAGRLDNGFDVFKDTITPTRWNSHIWTPEELEKIRTEVKNPAYINVVTGGSPENLDDLIKLANENFENDSRAAEAGLGAKLSAGIIGAGVDPLSYVPMVGVTGKGFKLINKALVVGAESAALNVASEGLRTSVAGGDADYAGAALGGFVFGAGMSAISDAVAAGLKRSKPEAEFDNEFIGPMMRLEARETARNANSADLSRMNTENMKFEGEHNGVPYEDLPTERGAVVLHDGSVLSASNPINPKTLKEFSEVDPEKAARGIKLAGFTEIGLKTLGSDDADIRRVAIDLVRSPTGMQSGASGKFGATASDIHERLHGTDQRTYNDLYKAMSDAMKDPEFSTGGAKMSREETRYTIYRRAALAIERPELQKALTPSERIVMDIIKRHFDTKRELMENPAIFGNTKAVSIFPESRHKGTYVPHVYDRHAKALMIQRYGAEGLQEGIARSWMNSYVSRPEVKARVDEMLKELHGVKEVTPEMVEKYAMDKAYGISHSDQFTNSSIIEENIEGLVGIENNSFLEARNLFDSDLSITMPDGQQFSVNDLRDFDMFRIMPAYDRRVNGDIAIMGSTGKTTKELKDEILALKAKAEGDGKKTGEVHALMDTVKILTGRARRNQDTVWETSLRAINDLGFFAKNAYMGAQNITEIAGMIVTGNVRALGHGIPILRDTLYKSKPVSAKELKELHASLFGKEVDQLIRPKRADIVQRLREATDTGPAVANIVGTLKYSTQELAARSPWTKLLNGTTNYLLDAARQGMLGDVISATLTGKTTRWEKEGFLRGASVTPEQMAGIKSLIKEHMVRGEDGKFTVKDKQAFSMDPRAMDLWRLADKVADEAMLRPHKVSLQDSHAFGALGKMVMQFKSFTIKSLNSKFLRTFYDGYKNNRAIDAALSIITSMGLAGGFYAMAAHVKAYALPKEKRKEYLERALDPTMIAHAALSRSSQLGAPLAMVDLVGGVLGFESSKMARSTILPKDTVKERDPNKPYTSREVMGAMGSNLLEQMPSAGFVANVGATLMNAAGVVNSPNKATEQDFMTGLMNSTKELVPNDPLTQQLVLKIYEANGVNLRERRK
B2: bacteriophage T7 gp15 core protein (natural protein, UniProt P03725 1-747, looked up)
chain: MSKIESALQAAQPGLSRLRGGAGGMGYRAATTQAEQPRSSLLDTIGRFAKAGADMYTAKEQRARDLADERSNEIIRKLTPEQRREALNNGTLLYQDDPYAMEALRVKTGRNAAYLVDDDVMQKIKEGVFRTREEMEEYRHSRLQEGAKVYAEQFGIDPEDVDYQRGFNGDITERNISLYGAHDNFLSQQAQKGAIMNSRVELNGVLQDPDMLRRPDSADFFEKYIDNGLVTGAIPSDAQATQLISQAFSDASSRAGGADFLMRVGDKKVTLNGATTTYRELIGEEQWNALMVTAQRSQFETDAKLNEQYRLKINSALNQEDPRTAWEMLQGIKAELDKVQPDEQMTPQREWLISAQEQVQNQMNAWTKAQAKALDDSMKSMNKLDVIDKQFQKRINGEWVSTDFKDMPVNENTGEFKHSDMVNYANKKLAEIDSMDIPDGAKDAMKLKYLQADSKDGAFRTAIGTMVTDAGQEWSAAVINGKLPERTPAMDALRRIRNADPQLIAALYPDQAELFLTMDMMDKQGIDPQVILDADRLTVKRSKEQRFEDDKAFESALNASKAPEIARMPASLRESARKIYDSVKYRSGNESMAMEQMTKFLKESTYTFTGDDVDGDTVGVIPKNMMQVNSDPKSWEQGRDILEEARKGIIASNPWITNKQLTMYSQGDSIYLMDTTGQVRVRYDKELLSKVWSENQKKLEEKAREKALADVNKRAPIVAATKAREAAAKRVREKRKQTPKFIYGRKE

Experiments:
[1] = biological target: B2; assay: AUC
[2] = biological target: the molecule itself; assay: AUC + other: dynamic light scattering

Binder: B1
- stoichiometry N [1]: 6 gp16 monomers per gp15 hexamer

Binder: B2
- stoichiometry N [2]: 6
